One data set can be described thus: in vivo. On the set-up: species or system mice. As to conditions: mouse, iv, 1.48 Mbq, total radioactivity. The method, then: Organs and tumor tissues of interest were collected and weighed. The radioactivity was detected by a γ counter, and biological distribution results were calculated as a percent of an injection dose per gram of tissue (% ID/g).
A further data set deals with AR42J tumor. Nature of the data set: MicroPET imaging in AR42J tumor-bearing mice. Type of data set: in vivo. As to conditions: unlabeled compound injected simultaneously with ^68Ga-DOTA-TATE, PET. The method, then: ^68Ga-TATE-EB-01 was prepared according to the method in Example 2. […] Results are shown in FIG. 4, FIG. 5, FIG. 6 and FIG. 7.
The conditions of data set [1]: in vivo; cited from earlier work.

This is an account of results in patent US20250332299A1, “COMPOUND TARGETING SSTR2, PREPARATION METHOD THEREFOR AND USE THEREOF” (YANTAI LANNACHENG BIOTECHNOLOGY CO., LTD., priority 2022, published 2025).

Each structure is given as a SMILES string.

By tissue uptake is commonly meant the percentage of the injected dose found per gram of tissue. As to `Cc1cc(-c2ccc(NC(=O)[C@H](CCCCNC(=O)CCOCCOCCC(=O)N[C@H](Cc3ccccc3)C(=O)N[C@H]3CSSC[C@@H](C(=O)N[C@H](C(=O)O)[C@@H](C)O)NC(=O)[C@H]([C@@H](C)O)NC(=O)[C@H](CCCCN)NC(=O)[C@@H](Cc4c[nH]c5ccccc45)NC(=O)[C@H](Cc4ccc(O)cc4)NC3=O)NC(=O)CN3CCN(CC(=O)O)CCN(CC(=O)O)CCN(CC(=O)O)CC3)c(C)c2)ccc1N=Nc1ccc2c(S(=O)(=O)O)cc(S(=O)(=O)O)c(N)c2c1O` [^177Lu-TATE-EB-01, metal not drawn], in the data set “in vivo”, the tissue uptake at 72 h was determined as 158 ± 20 %ID/g and the tissue uptake at 96 h was found to be 112 ± 20.6 %ID/g.
For `Cc1cc(-c2ccc(NC(=O)[C@H](CCCCNC(=O)CCOCCOCCC(=O)N[C@H](Cc3ccccc3)C(=O)N[C@H]3CSSC[C@@H](C(=O)N[C@H](C(=O)O)[C@@H](C)O)NC(=O)[C@H]([C@@H](C)O)NC(=O)[C@H](CCCCN)NC(=O)[C@@H](Cc4c[nH]c5ccccc45)NC(=O)[C@H](Cc4ccc(O)cc4)NC3=O)NC(=O)CN3CCN(CC(=O)O)CCN(CC(=O)O)CCN(CC(=O)O)CC3)c(C)c2)ccc1N=Nc1ccc2c(S(=O)(=O)O)cc(S(=O)(=O)O)c(N)c2c1O` (single isomer, unassigned) [TATE-EB-01], the “inhibition of tumor uptake of ^68Ga-DOTA-TATE” value in the data set on AR42J tumor was “significantly inhibit tumor uptake”.
Turning to `Cc1cc(-c2ccc(NC(=O)[C@H](CCCCNC(=O)CCN3C(=O)CC(SCCC(=O)N[C@H](Cc4ccccc4)C(=O)N[C@H]4CSSC[C@@H](C(=O)N[C@H](C(=O)O)[C@@H](C)O)NC(=O)[C@H]([C@@H](C)O)NC(=O)[C@H](CCCCN)NC(=O)[C@@H](Cc5c[nH]c6ccccc56)NC(=O)[C@H](Cc5ccc(O)cc5)NC4=O)C3=O)NC(=O)CN3CCN(CC(=O)O)CCN(CC(=O)O)CCN(CC(=O)O)CC3)c(C)c2)ccc1N=Nc1ccc2c(S(=O)(=O)O)cc(S(=O)(=O)O)c(N)c2c1O` (single isomer, unassigned) [^177Lu-EB-TATE, metal not drawn], in data set [1], the “half-life in the blood” value was 9.47 h and the “half-life in the blood relative to Lutathera” value is listed as “about 4 times”.
